This note sets out measurements from the Human Domainome abundance scans (Beltran et al. 2025).

± gives the uncertainty stated by the source.

Sequences and labels used below:
B1: Max-interacting protein 1, residues 70 to 120; numbered along this chain, P50539 (parent)
chain: STHNELEKNRRAHLRLCLERLKVLIPLGPDCTRHTTLGLLNKAKAHIKKLE
B2: POU domain, class 2, transcription factor 2, residues 200 to 269; numbered along this chain, P09086 (parent)
chain: LEELEQFARTFKQRRIKLGFTQGDVGLAMGKLYGNDFSQTTISRFEALNLSFKNMCKLKPLLEKWLNDAE

Variants of B1 are the subject of one series. The experiment in a line: abundance fitness (aPCA) (normalised: wild type 0, dead -1); higher = more abundant; growth selection in yeast, the domain comes from the species named. Conditions: Homo sapiens.
With STHNELEKNRRAHLRLCLERLKVLIPLGPDCTRHTTLGLLNKAKAHIKKLV [E51V], the abundance fitness came to 0.271 ± 0.14.

For STHNELEKNRRAHLRLCLERLKVLIPLGPDCTRHTTLGLLNKAKAHIKKLT [E51T], the abundance fitness was found to be 0.462 ± 0.16.

On to STHNELEKNRRAHLRLCLERLKVLIPLGPDCTRHTTLGLLNKAKAHIKKLI [E51I], for which the abundance fitness is -0.459 ± 0.47.

Consider STHNELEKNRRAHLRLCLERLKVLIPLGPDCTRHTTLGLLNKAKAHIKKLK [E51K], for which the abundance fitness turned out to be 0.891 ± 0.5.

Regarding STHNELEKNRRAHLRLCLERLKVLIPLGPDCTRHTTLGLLNKAKAHIKKLL [E51L], the abundance fitness is -0.182 ± 0.25.

Consider STHNELEKNRRAHLRLCLERLKVLIPLGPDCTRHTTLGLLNKAKAHIKKLP [E51P], for which the abundance fitness is -0.089 ± 0.34.

As for STHNELEKNRRAHLRLCLERLKVLIPLGPDCTRHTTLGLLNKAKAHIKKLR [E51R], the abundance fitness was found to be 0.452 ± 0.15.

Take STHNELEKNRRAHLRLCLERLKVLIPLGPDCTRHTTLGLLNKAKAHIKKLW [E51W]: the abundance fitness is -0.059 ± 0.18.

Consider STHNELEKNRRAHLRLCLERLKVLIPLGPDCTRHTTLGLLNKAKAHIKKLY [E51Y], for which the abundance fitness came to 0.374 ± 0.21.

For STHNELEKNRRAHLRLCLERLKVLIPLGPDCTRHTTLGLLNKAKAHIKKLQ [E51Q], the abundance fitness is -0.198 ± 0.25.

As for STHNELEKNRRAHLRLCLERLKVLIPLGPDCTRHTTLGLLNKAKAHIKKLM [E51M], the abundance fitness amounted to 0.571 ± 0.46.

Take STHNELEKNRRAHLRLCLERLKVLIPLGPDCTRHTTLGLLNKAKAHIKKLS [E51S]: the abundance fitness came to 0.615 ± 0.16.

Consider STHNELEKNRRAHLRLCLERLKVLIPLGPDCTRHTTLGLLNKAKAHIKKLN [E51N], for which the abundance fitness came out at 0.504 ± 0.18.

Variants of B2 are the subject of the next series. The description is as above. Conditions: Homo sapiens.
Consider LEFLEQFARTFKQRRIKLGFTQGDVGLAMGKLYGNDFSQTTISRFEALNLSFKNMCKLKPLLEKWLNDAE [E3F], for which the abundance fitness is -0.208 ± 0.1.

On to LECLEQFARTFKQRRIKLGFTQGDVGLAMGKLYGNDFSQTTISRFEALNLSFKNMCKLKPLLEKWLNDAE [E3C], for which the abundance fitness is -0.187 ± 0.065.

As for LERLEQFARTFKQRRIKLGFTQGDVGLAMGKLYGNDFSQTTISRFEALNLSFKNMCKLKPLLEKWLNDAE [E3R], the abundance fitness is -0.162 ± 0.034.

LEGLEQFARTFKQRRIKLGFTQGDVGLAMGKLYGNDFSQTTISRFEALNLSFKNMCKLKPLLEKWLNDAE [E3G]: the abundance fitness was -0.154 ± 0.041.

For LETLEQFARTFKQRRIKLGFTQGDVGLAMGKLYGNDFSQTTISRFEALNLSFKNMCKLKPLLEKWLNDAE [E3T], the abundance fitness was -0.159 ± 0.061.

As to LEVLEQFARTFKQRRIKLGFTQGDVGLAMGKLYGNDFSQTTISRFEALNLSFKNMCKLKPLLEKWLNDAE [E3V], the abundance fitness is -0.085 ± 0.054.

Turning to LEQLEQFARTFKQRRIKLGFTQGDVGLAMGKLYGNDFSQTTISRFEALNLSFKNMCKLKPLLEKWLNDAE [E3Q], the abundance fitness is -0.003 ± 0.061.

Consider LEKLEQFARTFKQRRIKLGFTQGDVGLAMGKLYGNDFSQTTISRFEALNLSFKNMCKLKPLLEKWLNDAE [E3K], for which the abundance fitness was -0.189 ± 0.083.

For LEILEQFARTFKQRRIKLGFTQGDVGLAMGKLYGNDFSQTTISRFEALNLSFKNMCKLKPLLEKWLNDAE [E3I], the abundance fitness was -0.078 ± 0.086.

On to LENLEQFARTFKQRRIKLGFTQGDVGLAMGKLYGNDFSQTTISRFEALNLSFKNMCKLKPLLEKWLNDAE [E3N], for which the abundance fitness was -0.107 ± 0.085.

On to LEDLEQFARTFKQRRIKLGFTQGDVGLAMGKLYGNDFSQTTISRFEALNLSFKNMCKLKPLLEKWLNDAE [E3D], for which the abundance fitness was -0.087 ± 0.14.

For the variant LEWLEQFARTFKQRRIKLGFTQGDVGLAMGKLYGNDFSQTTISRFEALNLSFKNMCKLKPLLEKWLNDAE [E3W], the abundance fitness is -0.263 ± 0.027.

For LEALEQFARTFKQRRIKLGFTQGDVGLAMGKLYGNDFSQTTISRFEALNLSFKNMCKLKPLLEKWLNDAE [E3A], the abundance fitness was -0.123 ± 0.035.

Turning to LEYLEQFARTFKQRRIKLGFTQGDVGLAMGKLYGNDFSQTTISRFEALNLSFKNMCKLKPLLEKWLNDAE [E3Y], the abundance fitness is -0.127 ± 0.072.

Take LEMLEQFARTFKQRRIKLGFTQGDVGLAMGKLYGNDFSQTTISRFEALNLSFKNMCKLKPLLEKWLNDAE [E3M]: the abundance fitness is -0.443 ± 0.18.

In the case of LEPLEQFARTFKQRRIKLGFTQGDVGLAMGKLYGNDFSQTTISRFEALNLSFKNMCKLKPLLEKWLNDAE [E3P], the abundance fitness is -0.76 ± 0.071.

LELLEQFARTFKQRRIKLGFTQGDVGLAMGKLYGNDFSQTTISRFEALNLSFKNMCKLKPLLEKWLNDAE [E3L]: the abundance fitness was -0.137 ± 0.036.

With LEELGQFARTFKQRRIKLGFTQGDVGLAMGKLYGNDFSQTTISRFEALNLSFKNMCKLKPLLEKWLNDAE [E5G], the abundance fitness is -0.034 ± 0.037.

For LEELDQFARTFKQRRIKLGFTQGDVGLAMGKLYGNDFSQTTISRFEALNLSFKNMCKLKPLLEKWLNDAE [E5D], the abundance fitness was -0.051 ± 0.083.

Regarding LEELCQFARTFKQRRIKLGFTQGDVGLAMGKLYGNDFSQTTISRFEALNLSFKNMCKLKPLLEKWLNDAE [E5C], the abundance fitness was -0.07 ± 0.08.

In the case of LEELFQFARTFKQRRIKLGFTQGDVGLAMGKLYGNDFSQTTISRFEALNLSFKNMCKLKPLLEKWLNDAE [E5F], the abundance fitness was -0.214 ± 0.2.

With LEELAQFARTFKQRRIKLGFTQGDVGLAMGKLYGNDFSQTTISRFEALNLSFKNMCKLKPLLEKWLNDAE [E5A], the abundance fitness was determined as 0.005 ± 0.042.

With WEELEQFARTFKQRRIKLGFTQGDVGLAMGKLYGNDFSQTTISRFEALNLSFKNMCKLKPLLEKWLNDAE [L1W], the abundance fitness is -0.051 ± 0.087.

In the case of VEELEQFARTFKQRRIKLGFTQGDVGLAMGKLYGNDFSQTTISRFEALNLSFKNMCKLKPLLEKWLNDAE [L1V], the abundance fitness was -0.061 ± 0.073.

For the variant TEELEQFARTFKQRRIKLGFTQGDVGLAMGKLYGNDFSQTTISRFEALNLSFKNMCKLKPLLEKWLNDAE [L1T], the abundance fitness is 0.016 ± 0.18.

As to SEELEQFARTFKQRRIKLGFTQGDVGLAMGKLYGNDFSQTTISRFEALNLSFKNMCKLKPLLEKWLNDAE [L1S], the abundance fitness was -0.027 ± 0.12.

For the variant CEELEQFARTFKQRRIKLGFTQGDVGLAMGKLYGNDFSQTTISRFEALNLSFKNMCKLKPLLEKWLNDAE [L1C], the abundance fitness was -0.496 ± 0.34.
